According to paper PMC4188263:

How the values were obtained:
[1] = target: methanol dehydrogenase from Methylococcus capsulatus (Bath), α2β2 dimer (Methylococcus capsulatus (Bath)); test: BLI
[2] = target: methanol dehydrogenase α subunit from Methylococcus capsulatus (Bath) (Methylococcus capsulatus (Bath)); test: SEC-MALS
[3] = target: methanol dehydrogenase α subunit from Methylococcus capsulatus (Bath) (Methylococcus capsulatus (Bath)); test: SEC

Substance	Kd [1]	stoichiometry N [2]	stoichiometry N [3]
spmoB, truncated recombinant periplasmic domains of M. capsulatus (Bath) pMMO subunit pmoB (domain or fragment)	9 µM		
methanol dehydrogenase α subunit from Methylococcus capsulatus (Bath) (natural protein)		2	2
